assay: label from the status in PepcDB records
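Note: failed if final PepcDB status was selected cloned or expressed and not failed if soluble or beyond.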

**Q.** Which protein production does the source give for “TSLEEITKAIMADSQNKVFTEKNIEPLFAAPKTARINIVGQAPGIKAQESRLYWNDKSGDRLREWMGVDYDTFYHSGYFAVIPMDFYYPGKGKSGDLPPRKGFAQKWHQPILDLLPDIQLTILIGNYAQKYYLHQKSSVKLTDTVAHYKKYLPDYFPLVHPSPRNQIWMSRHPWFEAQVVPDLKKIIQQII” here?
**A.** not failed

**Q.** For “TTLASIGKDIIEDADGIAMPHQWLEGNLPVSAKCTVCDKTCGSVLRLQDWRCLWCKAMVHTSCKESLLTKC”, which protein production is on record?
**A.** not failed

**Q.** Which protein production does the source give for “TVNVTTKKTPPSQPPGNVVWNATDTKVLLNWEQVKAMENESEVTGYKVFYRTSSQNNVQVLNTNKTSAELVLPIKEDYIIEVKATTDGGDGTSSEQIRIPRITS” here?
**A.** not failed

**Q.** With “TWILTADSPSLLGTVDVVTRYLFEQRCYVTEHHSFDDRLAQRFFIRVEFRAGDGFDEASFRAGLAERVAPFGMRTELTAPGYRSQVAIMVSKADHCLNDLLYRQRIGQLPMDVVAVISNHPDLEPLARWHGIPYHHFPLDPNDKPAQEARVWQVLEESGAELVILARYMQVLSPELCRRLDGWAINIHHSLLPGFKGAKPYHQAYQKGVKLVGATAHYINNDLDEGPIIAQGVETVDHAHYPEDLIAKGRDIECLTLARAVGYHIERRVFLNANRTVVL” as the sequence, how does the protein production read?
**A.** failed

**Q.** For “TWTDIRYREEGNAGFLSFSFPGGAMSTAQCRRLLDAYRDACTRPTSVLVLGGERDFFSNGIHLNVIEAADDPGAESWANINAIDDLVEAVLTTTDR”, which protein production is on record?
**A.** failed

**Q.** With “VATLNESIEAGLEPGAVALILEAFPIEDRVRLWRALPLELHIDVLTEMRADVRFSIINALSEVELKLTLAKLDNLSLIEWADSLPESIINEALALIEKDELELYDQANEYEDDELGRWAERKIITLPFNITVGTAKQLMERYSYDTPQQVYLINRNKQFRGAVNYYEILRSDSGVRLKTLEIETVTVLDSKMTLPEAVEALEHSALPALPVTDADQTLIGEVDWQFALSTQREIYEARLMAGTGMDEGDDLFAPVLKSSQKRGV” as the sequence, how does the protein production read?
**A.** not failed

**Q.** Which protein production does the source give for “VAVINSAQDAPSEAPTEVGVKVLSSSEISVHWEHVLEKIVESYQIRYWAAHDKEEAANRVQVTSQEYSARLENLLPDTQYFIEVGACNSAGCGPPSDMIEAFTKKA” here?
**A.** not failed

**Q.** Which protein production does the source give for “VDAGRGAEHDEAVTSDDSASVEVPRRATPADAATVAQMLHDFNTEFGAPTPGTDELASRLSHLLAGEDVVVLLAGEPPTGLAVLSFRPNVWYPGPVAILDELYVRPGRRGHRLGSALLAASCGLVRSRGGALLEINVDGEDTDARRFYEARGFTNTEPNGTEPMLYYYREL” here?
**A.** not failed

**Q.** With “VDKCDEPLSILVRNNKGRSSTYEVRLTQTVAHLKQQVSGLEGVQDDLFWLTFEGKPLEDQLPLGEYGLKPLSTVFMNLRLRGGGTEP” as the sequence, how does the protein production read?
**A.** failed

**Q.** With “VDKKAPQISFQARLLRDNVTIFLDFSGRGLFQRGYREHSGAAPLKENLAAALIIRSGWLNDTSKPLVDPMCGSGTILIEAVSMAAKQAPAINRQSWGFEAWLSHDNAVWQKQLTLAIDSSEENMSNLKVKVFGIDIDERVLRTAQQNARNAQLHQYIEFTCKNTNDMDNTFGQPGTILFNPPYGERIGELPELVENFVLFGQKLKMQFKDWRIAILTANVDLLSMLKLSSFKRYKFKNGPLDCQLALYNLDAKQG” as the sequence, how does the protein production read?
**A.** failed

**Q.** For “VEPVPDTHLRGITCLDHENEKVNMYCVSDDQLICALCKLVGRHRDHQVASLNDRFEKLKQTLEMNLTNLVK”, which protein production is on record?
**A.** not failed

**Q.** Which protein production does the source give for “VGTIDQLVKRVIEGSLSPKERTLLKEDPAYWFLSDENSLEYKYYKLKLAEMQR” here?
**A.** not failed

**Q.** With “VILSATRPFVCSRAPLGLSESAFMPLNGRTKMITKMPFRLVSLSCLELHRASSFWDIGFCTGSVSIEAKLNFPHLHITAFEIRPEGAELMPVNSRRFGAPGIAYRIGDFMEEDISSLAPPDAVFIGGHGGRLVEMIAKVHSVMTKGGLLVFNSVSEESRHLFLTGIEACGMELLSSIRLTADGNNPIDILQARKKE” as the sequence, how does the protein production read?
**A.** failed

**Q.** For “VITVGNYKGGAGKTTNVVLLAYKLAKKGLKVCVLDLDPQSNATKSLLLTKSSLYQDEVVTIEKTLMTGISEKNLDGLEVKIMDNLYLLPSYIDFEDFPKYLYKNTSNQREEDYYLKNIFTPLQGKYDIVLIDVPPMSKAVTRNAVICSDYVLISLQTHERSLSGAESYVEELNKLHNEYDLDLEVVGVLPVIHKNNGSVDQYVMEVAKETFGEDNLFENVVPQMERIKRFDVNGITDKDRHDQKVLNLYDKVSDELLD”, which protein production is on record?
**A.** failed

**Q.** Which protein production does the source give for “VIVDSVGNVLSDGDTVSITKTIKVKGAQQPLKSGMKARNIRLKPEVGTGPEDHNIECKIDGFGQMILKPAVVKKIV” here?
**A.** failed

**Q.** For “VIWNQLDARERLERQNDLFRRAQKLANIGAWEYEVSSGEVFWTRQVREIHGLPQGYEPTAEEAIAAYHPEDQPVIQGMIERAVEEEVPFDRELRLGGEALPVGHEQKEGRWVRARGTPQIEAGEVTSVRGTFQDITERKAREHVLENEREALRSMYRITADREAGFEEKARRLIDLGREHLGLPYGFLTRITDETQEIVFASGTHPLLQPGESCPLSRSYCRNTIQEERSLVVQDAVAEGWAGDPAHQTFELGAYVGAQIIVEGELYGTFCFAAEEPREQAFAGRERVFVELMAQWASYELGQRRAKAQLKRQNARLDSFAGLVAHDLRNPLNVATGRLRLAREER”, which protein production is on record?
**A.** failed

**Q.** Which protein production does the source give for “VKAAQGLLLSVFHLYPKRKVEIILYNEKWAECFDEEKERLKLVFGPEIIAIHHIGSTSIPNMAAKPIIDMLIEVRSIEAVSQFDEQMKANGYTPKGENGIAGRRYFQKGGNKRTHHVHMYEQGNPAIERHLLFRDYLRAHPNIAKEYAVLKKQLAAQHPDSINQYIQGKDEWIKTAEENAKRWKKGRNNANGSIVCYNSENDENGGFTL” here?
**A.** failed

**Q.** For “VLAPNVYFNPDAPPRKKRPLNVCAPEVVFFPTEDGVNLRLTRYNGGGKGPVMLVHGLGVGSNIFSTDTISTNLLEYLYQHGYDVWLLDFRVSILLPASQQQWDGDQVARYDYPAAIRRIREATGAADVQCVVHCYGATTFFMSMLAGLEGVRSVVCSQIAADIVVPTATQVKTGLHLPTVLDKLGVSSLTAYTASDSNWFEKLYDTALKGYALAEAQGYCNNPVCHRITFMYASLYRHETLNETLHDNLHELFGVANMRTMEHLARMCREGRLVSFDGDDIYMPHFDRLQMPILFISGEQNECYLPESTERTFDKLAQRFGPERYSRLVVPGYGHIDCMFGKNAAADVYPAIVAHLDKT”, which protein production is on record?
**A.** failed

**Q.** For “VLESVRKEWLEIMDRELLEKARSLINANYISTTLSTVDRNYEVNIAVISVLEMIGDDTIICARFGADKTYANLKETGKGVFMVLLTDNDKSKDGIRVYVELSADLQEGEYFDRIKKRLDNTTYKNFPLKNCLVFKIVKILPVSLLRK”, which protein production is on record?
**A.** not failed

**Q.** For “VLLAITTGLVASLVNAKAYKGAEIFTNDAYLYGRYEIRMRVANASGILSTFFTYKNGSEVGNTFWEEIDIEVFGKNNATQWQSNIILGSSRPTIHTEEIHTADTSLADAYHTYVVEWTPDYVAWFLDGVEVRRITGTSTVTSLTNAQSLRFNIWSSESVPWVGAWDDSVLPVYQFVNYIDYKAYNATTKTFEGGWRDDFNNFDSSRWGKANWSFDMNRVDFAPENALVKDGILVLALTKENATGFNGTPPADEPASSSSSVAASSTPASSIAASSIAASVAASSVAVATSSVAASKASGGGSGGGAINGMWLLMLGSFVLLGWVHNQRQSHQQHQ”, which protein production is on record?
**A.** failed

**Q.** With “VLTPRHIATLFTKLIPFKKNDKILDLCCGTGAFLIAGMNKLLSLKGIDAQNVKSNQLLGFEINPTMYICAISNMLFRGDGKSKIYNMDSINDDKVNKIISESAPTIGFINPPYSGKENKEDPTPKEITFLKKC” as the sequence, how does the protein production read?
**A.** failed

**Q.** Which protein production does the source give for “VMPLILLPAVDVVEGRAVRLVQGKAGSQTEYGSAVDAALGWQRDGAEWIHLVDLDAAFGRGSNHELLAEVVGKLDVQVELSGGIRDDESLAAALATGCARVNVGTAALENPQWCARVIGEHGDQVAVGLDVQIIDGEHRLRGRGWETDGGDLWDVLERLDSEGCSRFVVTDITKDGTLGGPNLDLLAGVADRTDAPVIASGGVSSLDDLRAIATLTHRGVEGAIVGKALYARRFTLPQALAAVRD” here?
**A.** not failed

**Q.** With “VNATQRKLLMQLVIGAAWVDGDLDQPERQYLQTLLERQKLDHDPDLLVLLETPIGLPQLEAWLVTFLQGTSTPTRLAALATIANLLMADGVVNRSEHSLLDEIHSLMAQIPASRDEEEYRQAAPGLVQGLSGLVRRALNGAKHLFQ” as the sequence, how does the protein production read?
**A.** not failed

**Q.** With “VPMNIKGLFEVAVKVKNLEKSSQFYTEILGFEAGLLDSARRWNFLWVSGRAGMVVLQEEKENWQQQHFSFRVEKSEIEPLKKALESKGVSVHGPVNLEWMQAVSLYFADPNGHALEFTAL” as the sequence, how does the protein production read?
**A.** not failed

**Q.** Which protein production does the source give for “VRHTVKIDKDTLLQDYGFHISESLPLTVVAVTAGGSAHGKLFPGDQILQMNNEPAEDLSWERAVDILREAEDSLSITVVRCTS” here?
**A.** not failed

**Q.** With “VTATQLAAKATTLYYLHKQAMTDEVSLLLEQALQLEPYNEAALSLIANDHFISFRFQEAIDTWVLLLDSNDPNLDRVTIIESINKAKKLM” as the sequence, how does the protein production read?
**A.** not failed

**Q.** Which protein production does the source give for “VTPEQLQHHRFVLESVNGKPVTSDKNPPEISFGEKMMISGSMCNRFSGEGKLSNGELTAKGLAMTRMMCANPQLNELDNTISEMLKEGAQVDLTANQLTLATAKQTLTYKLADLMN” here?
**A.** not failed

**Q.** With “VTPQGLRIVLQDDYKQHMFSRGGAELTPFFEDLLLALAPLFEQVTNPLIISGHTDAIPFKKRFGRQSNWALSASRADVARKTLVEGGMPDDRVMQVTGMSDRALLNPDEPDSSENRRIELFILTTP” as the sequence, how does the protein production read?
**A.** failed

**Q.** For “VTTVGFDVAARLGTLLTAMVTPFSGDGSLDTATAARLANHLVDQGCDGLVVSGTTGESPTTTDGEKIELLRAVLEAVGDRARVIAGAGTYDTAHSIRLAKACAAEGAHGLLVVTPYYSKPPQRGLQAHFTAVADATELPMLLYDIPGRSAVPIEPDTIRALASHPNIVGVKDAKADLHSGAQIMADTGLAYYSGDDALNLPWLAMGATGFISVIAHLAAGQLRELLSAFGSGDIATARKINIAVAPLCNAMSRLGGVTLSKAGLRLQGIDVGDPRLPQVAATPEQIDALAADMRAASVLR”, which protein production is on record?
**A.** not failed

**Q.** For “VWICTKCVRCKSCGSTTPGKGWDAQWSHDFSLCHDCAKLFAKGNFCPLCDKCYDDDDYESKMMQCGKCDRWVHSKCENLSDEMYEILSNLPESVAYTCVNCTERHPAEWRLALEKELQISLKQVLTALLNSRTTSHLLRYRQAAKPPDLNPETEESIPSRSSPEGPDPPVLTEVSKQDDQQPLDLEGVKRKMDQGNYTSVLEFSDDIVKIIQAAINSDGGQPEIKKANSMVKSFFIRQMERVFPWFSVKKSRFWEPNKVSSNSGMLPNAVLPPSLDHNYAQWQEREENSHTEQ”, which protein production is on record?
**A.** failed

**Q.** With “VWRQYASRALQELGAGKRAIHDVADLTRGSLRIAVTPTFTSYFIGPLMADFYARYPSITLQLQEMSQEKIEDMLCRDELDVGIAFAPVHSPELEAIPLLTESLALVVAQHHPLAVHEQVALSRLHDEKLVLLSAEFATREQIDHYCEKAGLHPQVVIEANSISAVLELIRRTSLSTLLPAAIATQHDGLKAISLAPPLLERTAVLLRRKNSWQTAAAKAFLHMALDKCAVVGGNESR” as the sequence, how does the protein production read?
**A.** not failed

**Q.** Which protein production does the source give for “VYLDFENHIKEIQNEIELALIRGDEDAKEILEKRLDKEVKSIYSNLTDFQKLQLARHPDRPYAMDYIDLILKDKYEVFGDRHYNDDKAIVCFVGKIDNVPVVVIGEEKGRGTKNKLLRNFGMPNPCGYRKALKMAKFAEKFNL” here?
**A.** failed
